Measured values reported in publication PMC4364671, “Identification and Characterization of Bifunctional Proline Racemase/Hydroxyproline Epimerase from Archaea: Discrimination of Substrates and Molecular Evolution” (PLoS ONE, 2015).

How the values were obtained:
[1] = target: ProR-like protein from Ferroplasma acidiphilum (Ferroplasma acidiphilum DSM 12658); assay: SEC; analytic gel filtration by HPLC on TSKgel G3000SWXL, 50 mM Tris-HCl pH 8.0, 1 ml/min, high molecular weight calibration kit; data not shown
[2] = target: T1, TlProR (bifunctional proline racemase/hydroxyproline epimerase) (Thermococcus litoralis, UniProt H3ZMH5); assay: HPLC racemase assay with L-proline, chiral separation; assay type: biochemical
T1 construct: gene OCC_00372
T1 sequence (H3ZMH5 1-331): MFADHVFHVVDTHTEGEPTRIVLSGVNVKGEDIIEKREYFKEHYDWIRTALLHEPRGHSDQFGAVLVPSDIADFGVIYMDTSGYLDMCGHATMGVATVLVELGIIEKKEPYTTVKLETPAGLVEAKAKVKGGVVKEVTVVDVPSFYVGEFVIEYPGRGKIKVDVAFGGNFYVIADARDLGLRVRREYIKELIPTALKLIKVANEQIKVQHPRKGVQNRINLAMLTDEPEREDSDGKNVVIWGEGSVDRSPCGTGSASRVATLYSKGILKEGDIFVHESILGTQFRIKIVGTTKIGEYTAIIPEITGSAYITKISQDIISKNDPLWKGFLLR

[3] = target: Hydroxyproline 2-epimerase from Azospirillum brasilense (Azospirillum brasilense ATCC 29145); assay: SEC; analytic gel filtration by HPLC on TSKgel G3000SWXL, 50 mM Tris-HCl pH 8.0, 1 ml/min, high molecular weight calibration kit; data not shown
HjProR = target: T2, HjProR (Haloarcula japonica, UniProt M0LMI3); assay: chiral HPLC of NBD-F derivatives, racemase activity; assay type: biochemical
T2 construct: gene C444_02196; full length, N-terminal His6 tag kept (pETDuet-1), E. coli; dimer; possible partial proteolysis
T2 sequence (M0LMI3 entry or part of it): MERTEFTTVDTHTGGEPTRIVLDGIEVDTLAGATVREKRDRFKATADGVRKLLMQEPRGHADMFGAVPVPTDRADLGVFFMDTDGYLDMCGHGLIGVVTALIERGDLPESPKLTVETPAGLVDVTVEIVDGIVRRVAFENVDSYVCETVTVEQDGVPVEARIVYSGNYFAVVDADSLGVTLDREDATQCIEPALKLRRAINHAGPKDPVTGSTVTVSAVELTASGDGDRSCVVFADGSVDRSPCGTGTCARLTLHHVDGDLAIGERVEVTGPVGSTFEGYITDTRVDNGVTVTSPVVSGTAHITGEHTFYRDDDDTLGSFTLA

[4] = target: ProR-like protein from Haloarcula japonica (Haloarcula japonica DSM 6131); assay: SEC; analytic gel filtration by HPLC on TSKgel G3000SWXL, 50 mM Tris-HCl pH 8.0, 1 ml/min, high molecular weight calibration kit; data not shown
[5] = target: ProR-like protein (OCC_00372) from Thermococcus litoralis, bifunctional proline racemase/hydroxyproline epimerase (Thermococcus litoralis DSM 5473); assay: as above
purified protein [6] = substrate: O=C(O)[C@@H]1CCCN1; assay: purified protein
purified protein [7] = substrate: O=C(O)[C@@H]1C[C@@H](O)CN1; assay: purified protein
purified protein [8] = substrate: O=C(O)[C@H]1CCCN1; assay: purified protein
purified protein [9] = substrate: O=C(O)[C@H]1C[C@@H](O)CN1; assay: purified protein
purified protein [10] = substrate: O=C(O)[C@H]1NCC[C@@H]1O; assay: purified protein
[11] = target: the molecule itself; assay: SEC; analytic gel filtration by HPLC on TSKgel G3000SWXL, 50 mM Tris-HCl pH 8.0, 1 ml/min, high molecular weight calibration kit; data not shown

For “ProR-like protein from Ferroplasma acidiphilum (enzyme)”, the stoichiometry N [1] was 2.

For `O=C(O)c1ccc[nH]1` [PYC, pyrrole-2-carboxylate], the IC50 [2] was 217 µM.

“Hydroxyproline 2-epimerase from Azospirillum brasilense (enzyme)” showed a stoichiometry N [3] of 2.

Work on `O=C(O)c1ccc[nH]1` [pyrrole-2-carboxylate] yielded an IC50 (HjProR) of 295 µM.

For “ProR-like protein from Haloarcula japonica (enzyme)”, the stoichiometry N [4] was 2.

Work on “ProR-like protein (OCC_00372) from Thermococcus litoralis, bifunctional proline racemase/hydroxyproline epimerase (enzyme)” yielded a stoichiometry N [5] of 2.

B1: TlProR (bifunctional proline racemase/hydroxyproline epimerase) (Thermococcus litoralis DSM 5473) (protein)
chain: MFADHVFHVVDTHTEGEPTRIVLSGVNVKGEDIIEKREYFKEHYDWIRTALLHEPRGHSDQFGAVLVPSDIADFGVIYMDTSGYLDMCGHATMGVATVLVELGIIEKKEPYTTVKLETPAGLVEAKAKVKGGVVKEVTVVDVPSFYVGEFVIEYPGRGKIKVDVAFGGNFYVIADARDLGLRVRREYIKELIPTALKLIKVANEQIKVQHPRKGVQNRINLAMLTDEPEREDSDGKNVVIWGEGSVDRSPCGTGSASRVATLYSKGILKEGDIFVHESILGTQFRIKIVGTTKIGEYTAIIPEITGSAYITKISQDIISKNDPLWKGFLLR
In the case of B1, the Km (purified protein [6]) is reported as 1210 µM, the kcat (purified protein [6]) is reported as 2.78 s⁻¹ and the kcat/Km (purified protein [6]) is reported as 2300 M⁻¹ s⁻¹. For the same molecule, the Km (purified protein [7]) was 6080 µM, the kcat (purified protein [7]) was 12.1 s⁻¹ and the kcat/Km (purified protein [7]) was 2030 M⁻¹ s⁻¹. The Km (purified protein [8]) was 91.9 µM, the kcat (purified protein [8]) was 2.22 s⁻¹ and the kcat/Km (purified protein [8]) was 26200 M⁻¹ s⁻¹. For the same molecule, the Km (purified protein [9]) was 6650 µM, the kcat (purified protein [9]) was 3.83 s⁻¹ and the kcat/Km (purified protein [9]) was 580 M⁻¹ s⁻¹. The Km (purified protein [10]) was 502 µM, the kcat (purified protein [10]) was 3.6 s⁻¹ and the kcat/Km (purified protein [10]) was 7170 M⁻¹ s⁻¹.

B2: Proline racemase from Clostridium difficile (enzyme, Clostridium difficile 630, UniProt Q17ZY4 1-335, looked up)
chain: MKFSRSIQAIDSHTAGEATRIVVGGIPNIKGNSMPEKKEYLEENLDYLRTAIMLEPRGHNDMFGSVMTQPCCPDADFGIIFMDGGGYLNMCGHGTIGAMTAAIETGVVPAVEPVTHVVMEAPAGIIRGDVTVVDGKAKEVSFLNVPAFLYKEGVEVDLPGVGTVKFDISFGGSFFAIIHASQLGLKIEPQNAGKLTELAMKLRDIINEKIEIQHPTLAHIKTVDLVEIYDEPTHPEATYKNVVIFGQGQVDRSPCGTGTSAKLATLHAKGELKVGEKFVYESILGTLFKGEIVEETKVADFNAVVPKITGSAYITGFNHFVIDEEDPLKHGFILK
notes: Proline racemase CdProR of Clostridium difficile 630, gene CD630_32370 amplified from genomic DNA into pETDuet-1; calculated mass with His6-tag 37.7 kDa; also called CdProR; source: E. coli BL21-CodonPlus(DE3)-RIL, purified (Ni-NTA); not shown: His6, N-terminal, kept
B2 was tested, and the “stoichiometry N” value [11] was 2.
